The record followed here is patent US12098206B2, “PDGF receptor antibody and use thereof” (Seoul National University R&DB Foundation, priority 2018, dated 2024).

The test system of the experiment is MOLT-4 cells. The experiment in a line: Cytotoxicity in MOLT-4 cells not expressing mPDGFR-β. The format is cell-based. The settings on record: complex with cot-duo; FIG. 7. The method, then: FIG. 7 is a graph confirming the cytotoxic ability of the bispecific antibody related to the anti-mPDGFR-β antibody and cot-duo complexes in the cells not expressing PDGFR-β. In FIG. 7a, MOLT-4 cells were reacted with the bispecific antibody and cot-duo complex (DAR4). The cellular ATP was measured to evaluate the relative cell viability. In FIG. 7b, MOLT-4 cells were reacted with the bispecific antibody and cot-duo complex (DAR2). The bispecific antibody anti-HER2 x cotinine scFv-Cκ-scFv was used as a negative control. DMSO was used as a vehicle control for cot-duo.

B1: PRb-CN01: anti-mPDGFR-β chicken scFv clone (VH SEQ ID NO 7, VL SEQ ID NO 8), tested as scFv-Cκ-anti-cotinine scFv bispecific antibody (antibody, V domains shown)
VH: AVTLDESGGGLQTPGGALSLVCKASGFTFSDRAMHWVRQAPGKGLEWVGLITNTGGSTNYGAAVKGRATISRDNGQSTVRLQLNNLRAEDTGTYYCTRGVGSWAHGGRIDAWGHGTEVIVSS
VL: LTQPSSVSANPGETVKITCSGGSGSYGWFQQKSPGSAPVTVIYSNNQRPSDIPSRFSGSKSGSTNTLTITGVQAEDEAIYYCGTRDSSYVGIFGAGTTLTVL
modifications: VH of PRb-CN01; VL of PRb-CN01
As to B1, the “toxicity in MOLT-4 cells compared to control antibody” value was “no difference in toxicity from the control antibody”.
